A word on the Kd: it is a measure of binding affinity in units of concentration. In general, koff refers to a measure of how fast the partners let go of each other. One may read the kon as a measure of how fast the partners come together.

Residue numbers refer to the chain shown, from its start.

This note sets out measurements from US20240182582A1 (Janssen / Centocor, published 2024).

In one assay the target is T1, BCMA (UniProt Q02223 1-184, limits assumed).
T1 sequence (looked up): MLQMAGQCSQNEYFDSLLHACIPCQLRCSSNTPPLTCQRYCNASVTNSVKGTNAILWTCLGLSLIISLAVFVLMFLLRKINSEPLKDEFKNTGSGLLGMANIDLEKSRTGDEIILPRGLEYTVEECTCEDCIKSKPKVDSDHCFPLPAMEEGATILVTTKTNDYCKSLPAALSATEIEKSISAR
Nature of the assay: cell-based or functional assay.

Assay [1] addresses NKp46 on NKL cells / NK cells (human, UniProt O76036 22-304). Nature of the assay: cell-based or functional assay.
The target in another assay is GPRC5d (UniProt Q9NZD1 1-345, limits assumed). Nature of the assay: cell-based or functional assay.
GPRC5d, sequence (Q9NZD1 whole entry): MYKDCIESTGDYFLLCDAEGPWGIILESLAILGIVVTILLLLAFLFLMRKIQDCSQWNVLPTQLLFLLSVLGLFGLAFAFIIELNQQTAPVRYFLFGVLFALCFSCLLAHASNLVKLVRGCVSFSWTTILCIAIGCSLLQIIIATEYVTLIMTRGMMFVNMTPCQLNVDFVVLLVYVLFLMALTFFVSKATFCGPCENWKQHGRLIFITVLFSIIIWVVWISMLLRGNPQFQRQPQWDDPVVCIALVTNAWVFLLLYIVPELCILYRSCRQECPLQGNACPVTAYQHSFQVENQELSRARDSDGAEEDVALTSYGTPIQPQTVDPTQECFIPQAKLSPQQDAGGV
For a further assay, the target named is T2, N46W3 (NKp46 D1) (UniProt O76036 22-120, limits assumed).
T2 construct: domain: D1
T2 sequence (O76036 22-120 limits assumed): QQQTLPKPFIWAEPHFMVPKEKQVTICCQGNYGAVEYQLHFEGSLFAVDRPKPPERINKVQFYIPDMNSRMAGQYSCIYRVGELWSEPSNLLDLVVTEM
Kind of assay: binding kinetics, method not named.

The target in assay [2] is T3, NKGW1 (human NKG2d80-216 extracellular region with N-term hexahistidine tag) (human, UniProt P26718 80-216).
T3 construct: also called human NKG2d (NKGW1)
T3 sequence: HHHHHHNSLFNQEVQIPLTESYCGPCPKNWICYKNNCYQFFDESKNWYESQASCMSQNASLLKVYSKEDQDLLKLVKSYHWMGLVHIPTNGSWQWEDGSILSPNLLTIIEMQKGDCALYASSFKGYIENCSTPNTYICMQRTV
Kind of assay: surface plasmon resonance. In general terms: SPR reads the build-up and loss of mass on a sensor chip optically.

The target in the next assay is T4, Cyno NKG2d (NKGW2.001) (cynomolgus monkey, UniProt P61252 80-216, limits assumed).
T4 sequence (looked up): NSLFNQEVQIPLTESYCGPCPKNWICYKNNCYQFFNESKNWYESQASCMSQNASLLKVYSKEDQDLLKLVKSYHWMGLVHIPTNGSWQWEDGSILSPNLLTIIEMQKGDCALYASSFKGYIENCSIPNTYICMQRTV
Kind of assay: surface plasmon resonance.

NKp46 on NKL cells / NK cells, sequence (O76036 22-304): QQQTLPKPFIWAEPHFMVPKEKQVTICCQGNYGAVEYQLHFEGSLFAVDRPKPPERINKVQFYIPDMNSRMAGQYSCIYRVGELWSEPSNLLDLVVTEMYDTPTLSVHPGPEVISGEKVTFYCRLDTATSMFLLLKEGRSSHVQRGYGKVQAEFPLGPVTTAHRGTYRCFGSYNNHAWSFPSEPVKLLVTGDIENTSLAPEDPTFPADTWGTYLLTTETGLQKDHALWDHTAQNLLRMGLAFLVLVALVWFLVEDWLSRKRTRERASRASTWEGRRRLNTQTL

B1: N46BB4 (bispecific antibody, human IgG1, kappa)
heavy: QLQLQESGPGPVRPSETLSLTCTVSGDSIRSSSYYWGWIRQPPGKGLDWIGSIYYTGSTYYNPSLMSRVTISVDTSKNQFSLKLSSVTAADTAVYYCASPGYSSGWSIDYWGQGTLVTVSSASTKGPSVFPLAPSSKSTSGGTAALGCLVKDYFPEPVTVSWNSGALTSGVHTFPAVLQSSGLYSLSSVVTVPSSSLGTQTYICNVNHKPSNTKVDKKVEPKSCDKTHTCPPCPAPELLGGPSVFLFPPKPKDTLMISRTPEVTCVVVDVSHEDPEVKFNWYVDGVEVHNAKTKPREEQYNSTYRVVSVLTVLHQDWLNGKEYKCKVSNKALPAPIEKTISKAKGQPREPQVYVYPPSREEMTKNQVSLTCLVKGFYPSDIAVEWESNGQPENNYKTTPPVLDSDGSFALVSKLTVDKSRWQQGNVFSCSVMHEALHNHYTQKSLSLSPGK
light: DIQLTQSPSFLSASVGDRVTITCRASQGISSYLAWYQQKPGKAPKLLIYVASTLQSGVPSRFSGSGSGTEFTLTISSLQPEDFATYYCQQLNSYPRMTFGGGTKVEIKRTVAAPSVFIFPPSDEQLKSGTASVVCLLNNFYPREAKVQWKVDNALQSGNSQESVTEQDSKDSTYSLSSTLTLSKADYEKHKVYACEVTHQGLSSPVTKSFNRGEC
chain: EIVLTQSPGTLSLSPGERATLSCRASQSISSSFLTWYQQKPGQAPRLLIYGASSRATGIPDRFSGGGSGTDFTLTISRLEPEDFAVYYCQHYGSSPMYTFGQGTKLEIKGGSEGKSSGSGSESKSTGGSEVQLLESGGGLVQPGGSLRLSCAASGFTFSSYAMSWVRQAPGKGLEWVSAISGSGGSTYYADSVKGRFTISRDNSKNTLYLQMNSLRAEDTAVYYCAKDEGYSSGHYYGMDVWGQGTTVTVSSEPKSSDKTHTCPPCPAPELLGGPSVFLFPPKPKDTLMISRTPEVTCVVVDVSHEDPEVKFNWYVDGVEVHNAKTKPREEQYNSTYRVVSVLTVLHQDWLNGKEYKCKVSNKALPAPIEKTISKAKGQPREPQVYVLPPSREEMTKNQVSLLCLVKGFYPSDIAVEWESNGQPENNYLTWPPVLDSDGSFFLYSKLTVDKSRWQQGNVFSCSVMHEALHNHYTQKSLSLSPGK
In the case of B1, the “IC50 for BsAb cytotoxicity, H929/GFP target cells with PBMC effectors” value (shortened to “IC50 … H929/GFP target cells with PBMC effectors”) with BCMA worked out at 0.00153 nM.

B2: N46BB10 (bispecific antibody, human IgG1, kappa)
heavy: B1 heavy with V354T, Y355L, T370W, A409F, V411Y, H439R, Y440F
light: B1 light
chain: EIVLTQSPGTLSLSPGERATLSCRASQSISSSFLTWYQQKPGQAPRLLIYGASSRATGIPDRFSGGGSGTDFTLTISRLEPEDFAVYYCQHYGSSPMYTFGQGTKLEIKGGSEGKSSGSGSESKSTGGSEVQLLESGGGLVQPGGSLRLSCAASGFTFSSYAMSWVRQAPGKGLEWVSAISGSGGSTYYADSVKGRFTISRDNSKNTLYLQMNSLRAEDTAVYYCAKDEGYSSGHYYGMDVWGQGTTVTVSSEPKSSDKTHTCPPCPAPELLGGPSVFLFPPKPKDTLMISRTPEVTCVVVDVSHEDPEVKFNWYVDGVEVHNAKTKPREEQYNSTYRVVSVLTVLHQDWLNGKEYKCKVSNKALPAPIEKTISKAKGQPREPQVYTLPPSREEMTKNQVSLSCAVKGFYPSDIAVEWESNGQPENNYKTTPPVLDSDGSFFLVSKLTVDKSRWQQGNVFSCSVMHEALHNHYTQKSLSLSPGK
For B2, the “EC50 of cytotoxicity (hypoxia study, PBMC on MM1R/GFP cells)” value in assay [1] is roughly 0.07 nM.

B3: N46BB14 (bispecific antibody, human IgG1, kappa, L234A L235A)
heavy: B1 heavy with L238A, L239A, D269S, V354T, Y355L, T370W, A409F, V411Y, H439R, Y440F
light: B1 light
chain: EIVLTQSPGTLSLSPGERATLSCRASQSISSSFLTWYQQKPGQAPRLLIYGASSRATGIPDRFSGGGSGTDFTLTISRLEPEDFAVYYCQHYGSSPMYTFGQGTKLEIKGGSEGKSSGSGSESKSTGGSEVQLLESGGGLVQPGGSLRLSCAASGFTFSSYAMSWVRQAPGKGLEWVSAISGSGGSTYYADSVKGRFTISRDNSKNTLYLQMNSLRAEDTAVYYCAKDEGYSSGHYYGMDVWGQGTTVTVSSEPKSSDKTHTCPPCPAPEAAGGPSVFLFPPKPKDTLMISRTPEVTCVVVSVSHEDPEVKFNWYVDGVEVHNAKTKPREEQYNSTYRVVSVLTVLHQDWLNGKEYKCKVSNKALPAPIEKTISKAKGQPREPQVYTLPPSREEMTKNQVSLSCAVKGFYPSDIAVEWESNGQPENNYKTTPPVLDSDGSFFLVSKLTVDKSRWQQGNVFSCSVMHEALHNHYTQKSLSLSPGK
For the molecule B3, in assay [1], the “EC50 of cytotoxicity (hypoxia study, PBMC on MM1R/GFP cells, 48-hour endpoint)” value is roughly 1.19 nM.

B4: N46BB10.AFU (bispecific antibody, human IgG1, kappa)
heavy: B1 heavy with V354T, Y355L, T370W, A409F, V411Y, H439R, Y440F
light: B1 light
chain: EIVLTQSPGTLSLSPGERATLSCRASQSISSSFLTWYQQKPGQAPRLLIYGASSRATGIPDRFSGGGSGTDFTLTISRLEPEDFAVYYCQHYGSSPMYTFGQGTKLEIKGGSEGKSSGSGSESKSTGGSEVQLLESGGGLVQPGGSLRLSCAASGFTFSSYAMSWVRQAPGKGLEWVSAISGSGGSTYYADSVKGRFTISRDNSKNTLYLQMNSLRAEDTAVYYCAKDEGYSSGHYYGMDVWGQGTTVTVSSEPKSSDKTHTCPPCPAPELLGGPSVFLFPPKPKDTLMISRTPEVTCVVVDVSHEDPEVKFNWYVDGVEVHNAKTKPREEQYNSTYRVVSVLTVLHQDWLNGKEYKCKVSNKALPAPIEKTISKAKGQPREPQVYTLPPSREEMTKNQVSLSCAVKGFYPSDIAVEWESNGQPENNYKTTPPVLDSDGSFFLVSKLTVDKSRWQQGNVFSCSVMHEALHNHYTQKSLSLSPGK
Consider B4, for which, in assay [1], the “EC50 of cytotoxicity (hypoxia study, PBMC on MM1R/GFP cells)” value worked out at 0.006 nM.

B5: NG2BB9 (bispecific antibody, human IgG1, kappa)
heavy: EVQLVQSGAEVKKPGESLKISCKGSGYSFTSYWIGWVRQMPGKGLEWMGIIYPGDSYTRYSPSFQGQVTISADKSISTAYLQWSSLKASDTAMYYCARGGVSASGNYRALDYWGQGTLVTVSSASTKGPSVFPLAPSSKSTSGGTAALGCLVKDYFPEPVTVSWNSGALTSGVHTFPAVLQSSGLYSLSSVVTVPSSSLGTQTYICNVNHKPSNTKVDKKVEPKSCDKTHTCPPCPAPELLGGPSVFLFPPKPKDTLMISRTPEVTCVVVDVSHEDPEVKFNWYVDGVEVHNAKTKPREEQYNSTYRVVSVLTVLHQDWLNGKEYKCKVSNKALPAPIEKTISKAKGQPREPQVYVYPPSREEMTKNQVSLTCLVKGFYPSDIAVEWESNGQPENNYKTTPPVLDSDGSFALVSKLTVDKSRWQQGNVFSCSVMHEALHNHYTQKSLSLSPGK
light: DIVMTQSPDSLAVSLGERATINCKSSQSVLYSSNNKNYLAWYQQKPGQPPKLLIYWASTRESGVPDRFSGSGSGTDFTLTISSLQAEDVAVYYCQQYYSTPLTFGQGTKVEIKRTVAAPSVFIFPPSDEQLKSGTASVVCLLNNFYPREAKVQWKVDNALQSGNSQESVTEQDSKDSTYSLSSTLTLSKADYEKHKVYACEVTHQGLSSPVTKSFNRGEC
chain: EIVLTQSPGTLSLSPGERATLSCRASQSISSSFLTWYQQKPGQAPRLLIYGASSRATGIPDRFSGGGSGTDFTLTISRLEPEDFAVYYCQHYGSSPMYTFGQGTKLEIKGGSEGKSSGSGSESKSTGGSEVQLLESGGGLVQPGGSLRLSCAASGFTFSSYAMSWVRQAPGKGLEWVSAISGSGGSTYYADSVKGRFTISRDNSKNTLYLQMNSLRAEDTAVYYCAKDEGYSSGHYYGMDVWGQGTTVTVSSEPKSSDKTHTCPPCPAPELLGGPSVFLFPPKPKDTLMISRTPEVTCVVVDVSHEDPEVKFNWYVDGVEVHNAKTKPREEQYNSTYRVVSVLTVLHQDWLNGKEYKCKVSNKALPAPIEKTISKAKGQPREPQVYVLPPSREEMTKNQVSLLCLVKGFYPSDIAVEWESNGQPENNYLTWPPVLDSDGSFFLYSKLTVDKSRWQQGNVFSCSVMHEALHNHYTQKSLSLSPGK
For B5, in the assay with BCMA, the “IC50 … H929/GFP target cells with PBMC effectors” value worked out at 0.00722 nM.

B6: NG2GB24 (bispecific antibody, human IgG1, kappa)
heavy: B5 heavy
light: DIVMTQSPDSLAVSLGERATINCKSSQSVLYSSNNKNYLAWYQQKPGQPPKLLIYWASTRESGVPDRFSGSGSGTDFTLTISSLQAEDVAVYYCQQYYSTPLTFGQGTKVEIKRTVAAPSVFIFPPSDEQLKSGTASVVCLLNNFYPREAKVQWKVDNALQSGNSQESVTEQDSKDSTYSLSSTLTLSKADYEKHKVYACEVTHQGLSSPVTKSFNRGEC
chain: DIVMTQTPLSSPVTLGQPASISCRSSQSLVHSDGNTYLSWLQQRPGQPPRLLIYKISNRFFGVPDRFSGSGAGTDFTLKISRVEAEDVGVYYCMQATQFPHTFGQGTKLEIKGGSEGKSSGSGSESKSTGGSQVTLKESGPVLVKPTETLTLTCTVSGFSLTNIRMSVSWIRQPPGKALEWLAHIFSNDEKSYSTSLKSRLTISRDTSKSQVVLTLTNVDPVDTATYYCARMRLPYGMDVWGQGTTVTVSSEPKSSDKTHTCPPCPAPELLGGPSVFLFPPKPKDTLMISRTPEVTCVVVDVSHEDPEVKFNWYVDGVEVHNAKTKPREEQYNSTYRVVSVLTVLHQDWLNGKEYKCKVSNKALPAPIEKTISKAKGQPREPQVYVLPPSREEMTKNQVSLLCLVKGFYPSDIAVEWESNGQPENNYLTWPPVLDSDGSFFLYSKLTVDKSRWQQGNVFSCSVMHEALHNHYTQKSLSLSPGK
With B6, the “IC50 … H929/GFP target cells with PBMC effectors” value in the assay with GPRC5d worked out at 0.0144 nM.

B7: N46B105 (antibody, V domains shown)
VH: QLQLQESGPGPVRPSETLSLTCTVSGDSIRSSSYYWGWIRQPPGKGLDWIGSIYYTGSTYYNPSLMSRVTISVDTSKNQFSLKLSSVTAADTAVYYCASPGYSSGWSIDYWGQGTLVTVSS
VL: DIQLTQSPSFLSASVGDRVTITCRASQGISSYLAWYQQKPGKAPKLLIYVASTLQSGVPSRFSGSGSGTEFTLTISSLQPEDFATYYCQQLNSYPRMTFGGGTKVEIK
notes: also called VR000044289
Consider B7, for which binding in the assay with N46W3 (NKp46 D1) was characterised by a dissociation constant (Kd) of 3.5 nM. This counts as single-digit nanomolar.

B8: NKGB125 (antibody, human IgG1, V domains shown)
VH: EVQLLESGGGLVQPGGSLRLSCAASGFTFSIYAMTWVRQAPGKGLEWVSIISGSGDHTFYADSVKGRFTISRDNSRNTLYLQMDSLRAEDTAVYYCAKEGKWVQLSHFANWGQGTLVTVSS
VL: SYVLTQPPSVSVAPGQTARITCGGNNIGSKSVHWYQQKAGQAPVLVVYDDSDRPSGIPERFSGSNSGNTATLTISRVEAGDEADYYCQVWDGRSDHVVFGGGTKLTVL
notes: OmniRat hybridoma clone; v-regions cloned into human IgG1 sigma and lambda constant regions; also called NKGB125.002; NKGY1_045_F04
With B8, in assay [2], the dissociation constant (Kd) is 0.05 nM, the off-rate (koff) was 3.85e-05 s⁻¹ and the on-rate constant (kon) is 751000 M⁻¹ s⁻¹. In the assay with Cyno NKG2d (NKGW2.001), the dissociation constant (Kd) stood at 0.1 nM, the koff came out at 5.84e-05 s⁻¹ and the on-rate constant (kon) is 571000 M⁻¹ s⁻¹.

B9: NG2GB19 (bispecific antibody, human IgG1, lambda)
heavy: not shown
light: SYVLTQPPSVSVAPGQTARITCGGNNIGSKSVHWYQQKAGQAPVLVVYDDSDRPSGIPERFSGSNSGNTATLTISRVEAGDEADYYCQVWDGRSDHVVFGGGTKLTVLGQPKAAPSVTLFPPSSEELQANKATLVCLISDFYPGAVTVAWKADSSPVKAGVETTTPSKQSNNKYAASSYLSLTPEQWKSHRSYSCQVTHEGSTVEKTVAPTECS
As for B9, the “IC50 … H929/GFP target cells with PBMC effectors” value with GPRC5d was 0.0199 nM.

B10: NG2BB10 (bispecific antibody, human IgG1, lambda)
heavy: EVQLLESGGGLVQPGGSLRLSCAASGFTFSIYAMTWVRQAPGKGLEWVSIISGSGDHTFYADSVKGRFTISRDNSRNTLYLQMDSLRAEDTAVYYCAKEGKWVQLSHFANWGQGTLVTVSSASTKGPSVFPLAPSSKSTSGGTAALGCLVKDYFPEPVTVSWNSGALTSGVHTFPAVLQSSGLYSLSSVVTVPSSSLGTQTYICNVNHKPSNTKVDKKVEPKSCDKTHTCPPCPAPELLGGPSVFLFPPKPKDTLMISRTPEVTCVVVDVSHEDPEVKFNWYVDGVEVHNAKTKPREEQYNSTYRVVSVLTVLHQDWLNGKEYKCKVSNKALPAPIEKTISKAKGQPREPQVYVYPPSREEMTKNQVSLTCLVKGFYPSDIAVEWESNGQPENNYKTTPPVLDSDGSFALVSKLTVDKSRWQQGNVFSCSVMHEALHNHYTQKSLSLSPGK
light: B9 light
chain: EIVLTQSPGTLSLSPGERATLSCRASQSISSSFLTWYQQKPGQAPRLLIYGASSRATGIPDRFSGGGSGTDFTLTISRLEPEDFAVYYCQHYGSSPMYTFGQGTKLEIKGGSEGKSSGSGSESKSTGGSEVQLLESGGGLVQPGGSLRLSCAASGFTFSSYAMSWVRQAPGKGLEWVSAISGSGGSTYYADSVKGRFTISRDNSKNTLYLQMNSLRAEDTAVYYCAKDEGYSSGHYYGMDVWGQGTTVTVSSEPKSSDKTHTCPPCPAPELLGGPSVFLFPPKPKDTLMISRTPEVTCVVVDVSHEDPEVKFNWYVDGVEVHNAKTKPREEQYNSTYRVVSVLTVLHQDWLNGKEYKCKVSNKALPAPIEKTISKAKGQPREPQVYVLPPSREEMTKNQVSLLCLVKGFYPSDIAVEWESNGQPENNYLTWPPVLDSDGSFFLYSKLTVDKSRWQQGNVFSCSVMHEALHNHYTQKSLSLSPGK
As for B10, the “IC50 … H929/GFP target cells with PBMC effectors” value with BCMA stood at 0.0209 nM.

B11: NG2GB23 (bispecific antibody, human IgG1, lambda)
heavy: B10 heavy
light: B9 light
chain: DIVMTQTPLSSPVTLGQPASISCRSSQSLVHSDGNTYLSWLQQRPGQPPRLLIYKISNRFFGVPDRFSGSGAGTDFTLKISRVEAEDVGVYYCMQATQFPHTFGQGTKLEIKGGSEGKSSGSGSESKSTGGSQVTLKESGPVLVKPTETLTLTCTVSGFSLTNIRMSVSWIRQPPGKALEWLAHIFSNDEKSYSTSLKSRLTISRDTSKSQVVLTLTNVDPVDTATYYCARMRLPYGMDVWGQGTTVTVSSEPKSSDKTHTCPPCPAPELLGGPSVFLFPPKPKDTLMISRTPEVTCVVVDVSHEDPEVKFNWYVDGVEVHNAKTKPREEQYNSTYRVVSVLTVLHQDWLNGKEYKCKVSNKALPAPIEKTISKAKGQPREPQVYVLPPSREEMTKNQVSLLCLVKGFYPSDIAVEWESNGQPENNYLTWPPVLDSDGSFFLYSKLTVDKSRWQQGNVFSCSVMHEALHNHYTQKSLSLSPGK
Consider B11, for which the “IC50 … H929/GFP target cells with PBMC effectors” value in the assay with GPRC5d is 0.00337 nM.

B12: NKGB83 (antibody, human IgG1, V domains shown)
VH: EVQLVQSGAEVKKPGESLKISCKGSGYSFTSYWIGWVRQMPGKGLEWMGIIYPGDSYTRYSPSFQGQVTISADKSISTAYLQWSSLKASDTAMYYCARGGVSASGNYRALDYWGQGTLVTVSS
VL: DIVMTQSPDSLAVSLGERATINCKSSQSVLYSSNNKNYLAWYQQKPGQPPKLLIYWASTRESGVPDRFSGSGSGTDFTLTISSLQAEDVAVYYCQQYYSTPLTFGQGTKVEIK
notes: phage display panel; v-regions cloned into silent human IgG1/kappa constant regions; also called NKGB83.002
B12: in assay [2], binding was characterised by a dissociation constant (Kd) of 8.2 nM, the off-rate constant (koff) is 0.000941 s⁻¹ and the kon is 114000 M⁻¹ s⁻¹. For the same molecule, in the assay with Cyno NKG2d (NKGW2.001), the dissociation constant Kd amounted to 27.4 nM, the off-rate (koff) amounted to 0.00212 s⁻¹ and the on-rate constant (kon) came out at 77600 M⁻¹ s⁻¹.
